Experimental data taken from US20170158767A1 (published 2017).
Blank lines part the entries; values can stand above or below the binder they belong to.

Experiments:
[1] = target: T1, human PD-L1 expressed at the cell surface (human, UniProt Q9NZQ7 19-290); assay: flow cytometry on CHO cells transfected with human PD-L1 (FIG. 32B)
T1 construct: whole, on cells; also called cell surface PD-L1; full-length human PD-L1 on transfected CHO cells
Description: (§1) Chinese hamster ovary (CHO) cell lines that express recombinant human PD-L1 at the cell surface were developed and used to determine the specificity of PD-L1 human monoclonal antibodies by flow cytometry. CHO cells were transfected with expression plasmids containing full length cDNA encoding transmembrane forms of PD-L1. […] The cells were washed and binding was detected with a FITC-labeled anti-human IgG Ab. Flow cytometric analyses were performed using a FACScan flow cytometry (Becton Dickinson, San Jose, Calif.). The binding was compared to the parent CHO cell line. […] Binding was also tested using varying concentrations of an anti-PD-L1 antibody.

[2] = target: T1, human PD-L1 expressed at the cell …; assay: flow cytometry, serial dilutions on anti-CD3-activated human T cells
Description: Human or monkey T cells were activated by anti-CD3 antibody to induce PD-L1 expression prior to binding with a human anti-PD-L1 monoclonal antibody. […] An isotype control antibody was used as a negative control. The cells were washed and binding was detected with a FITC-labeled anti-human Ig-kappa light chain Ab. Flow cytometric analyses were performed using a FACScalibur flow cytometer (Becton Dickinson, San Jose, Calif.).

[3] = target: T1, human PD-L1 expressed at the cell …; assay: flow cytometry on CHO cells transfected with human PD-L1 (FIG. 32A)
Description: as §1

T1 sequence (Q9NZQ7 19-290): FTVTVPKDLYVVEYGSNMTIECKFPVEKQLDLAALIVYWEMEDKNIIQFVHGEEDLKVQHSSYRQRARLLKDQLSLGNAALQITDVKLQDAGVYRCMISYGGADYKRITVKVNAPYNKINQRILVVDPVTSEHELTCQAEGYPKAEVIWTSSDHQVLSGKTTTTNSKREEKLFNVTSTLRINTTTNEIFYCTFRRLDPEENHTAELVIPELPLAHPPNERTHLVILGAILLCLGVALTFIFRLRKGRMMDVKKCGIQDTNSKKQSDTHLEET

binding result [1]: binds
B1: 10A5 human monoclonal antibody (antibody, V domains shown)
VH: QVQLVQSGAEVKKPGASVKVSCKASGYTFTSYDVHWVRQAPGQRLEWMGWLHADTGITKFSQKFQGRVTITRDTSASTAYMELSSLRSEDTAVYYCARERIQLWFDYWGQGTLVTVSS
VL: DIQMTQSPSSLSASVGDRVTITCRASQGISSWLAWYQQKPEKAPKSLIYAASSLQSGVPSRFSGSGSGTDFTLTISSLQPEDFATYYCQQYNSYPYTFGQGTKLEIK
notes: Fully human IgG kappa from a KM mouse hybridoma; also called HuMAb 10A5

binding result [2]: binds
B2: 1B12 human monoclonal antibody (antibody, V domains shown)
VH: QVQLVQSGAEVKKPGSSVKVSCKTSGDTFSSYAISWVRQAPGQGLEWMGGIIPIFGRAHYAQKFQGRVTITADESTSTAYMELSSLRSEDTAVYFCARKFHFVSGSPFGMDVWGQGTTVTVSS
VL: not shown
notes: Fully human IgG kappa from a KM mouse hybridoma

binding result [3]: binds
B3: 3G10 human monoclonal antibody (antibody, V domains shown)
VH: QVQLVQSGAEVKKPGASVKVSCKASGYTFTDYGFSWVRQAPGQGLEWMGWITAYNGNTNYAQKLQGRVTMTTDTSTSTVYMELRSLRSDDTAVYYCARDYFYGMDVWGQGTTVTVSS
VL: EIVLTQSPATLSLSPGERATLSCRASQSVSSYLVWYQQKPGQAPRLLIYDASNRATGIPARFSGSGSGTDFTLTISSLEPEDFAVYYCQQRSNWPRTFGQGTKVEIK
notes: Fully human IgG kappa from a KM mouse hybridoma; also called HuMAb 3G10
